Test results: the supplement of paper PMC9170038

System: MS2 coat protein
Assay: apparent KD of MS2 coat protein; designed switch direction (-1 OFF switch, 1 ON switch): 1; higher = weaker reporter binding
In short: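 The buffer was Tris-HCl pH 7.5 with KCl, MgCl2, BSA, DTT, tRNA and Tween-20. In it, SNAP-549-labelled MS2 coat protein was titrated in doubling steps from 0.7 or 1.5 nM to 3 µM over chip-bound RNA switches transcribed by stalled E. coli RNA polymerase on Illumina chips. Apparent KD is the per-design median over clusters of curve fits to normalised fluorescence.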

[1] = Eterna round: R95, input ligand: FMN 200 uM
[2] = Eterna round: R95, input ligand: microRNA oligo, concentration not stated
[3] = Eterna round: R95, input ligand: none
[4] = input ligand: microRNA oligo, concentration not stated

Sequence	apparent KD of MS2 coat protein [1]	apparent KD of MS2 coat protein [2]	apparent KD of MS2 coat protein [3]	apparent KD of MS2 coat protein (input ligand: FMN 200 uM)	apparent KD of MS2 coat protein [4]	apparent KD of MS2 coat protein (input ligand: none)
UACAAUCUAUCUGAGGAUAUCAUGAUAAUAACAUGAGGAUCACCCAUGUGCAGGAAAACUGCAUAUGAGAAGGCAGAUAGAUUGA [Mat - Same State 2 - Mod - D13] (puzzle: Same State 2)	0.0899 µM	0.0931 µM	0.417 µM	–	–	–
UGUUGAAACUGAGGAUAUGGCGUGUGACGAAUGCCAGAAGGUAGUAGGAGCAACAUGAGGAUCACCCAUGUCCGGCGCAGACCC [Eternabot solution 16] (Eterna round: R96, puzzle: Same State NG 1)	–	–	–	0.0856 µM	0.0613 µM	0.0713 µM
ACAUGAGAGGGAGGAUAUUUUGUACCUACAUGUGACAUGAGGAUCACCCAUGUGGUAAGUAUGAGAAAGAAGGCCCAGAUAUGU [Equivalence 18 - Jieux - Same State NG 2] (Eterna round: R96, puzzle: Same State NG 2)	–	–	–	0.0174 µM	0.0189 µM	0.0274 µM
GCGAGCGUACUUGCAGACAUGAGGAUCACCCAUGUAACUGGACAGGAUAUGGUACCGUUUCGGUACCAGAAGGGUUUAUUCAUG [JL SSNG3 3.56] (Eterna round: R96, puzzle: Same State NG 3)	–	–	–	0.0834 µM	0.0635 µM	0.0562 µM
AGUCCUGAAAAGAAAAUACAGAGAGAUGUACAUGAGGAUCACCCAUGUCAUGUACAAGUUCUAUGCUCGUCAUAUAA [Sensorship 22 - Jieux - Sensor for hsa-mir-208a] (puzzle: Sensor for hsa-mir-208a)	0.51 µM	0.106 µM	0.617 µM	–	–	–
GGAUGAUAGAUAGGAUAUUGAUUGUAAUUAUGUCAAGAAGGAUCUUUGAUUUAAACGACCAGUUACAUGAGGAUCACCCAUGUU [JR_SSNG1_Sub087] (Eterna round: R96, puzzle: Same State NG 1)	–	–	–	0.0233 µM	0.0304 µM	0.0436 µM
GAAGAACAUGAGGAUCACCCAUGUAAGCGGAAGCUAGGAUAUGCGGGAAAGAAAAGAGAAGCAGAAGGAGUAGGAA [JR_SS1_Sub028] (puzzle: Same State 1)	0.033 µM	0.0447 µM	0.0682 µM	–	–	–
UAAAAGAAUUAAGGAUAUUGAAUACAUAUGUUUAACAUGAGGAUCACCCAUGUGGGUUGCGGUAUCGAGAAGGUAAAAUAAUAG [Mat - Same State NG 2 - JL mod - D6] (Eterna round: R96, puzzle: Same State NG 2)	–	–	–	0.163 µM	0.11 µM	0.151 µM
UAUCCAUAGAUAGGAUAUCAGUAUACAUGAGGAUCACCCAUGUUCUAUUUGGUUUUAAUUUAUUCUGAGAAGGAUCUUGAUGAA [SameState NG2 #1] (Eterna round: R96, puzzle: Same State NG 2)	–	–	–	0.0138 µM	0.0164 µM	0.0176 µM
GUUACAUGAGGAUCACCCAUGUAUGUGUGGGAGUAAGUGUCUUAGGAUAUCUGUUAUUUAAUUCAAGAGAAGGAAGAUUGUUGU [JMF's solution 46] (Eterna round: R96, puzzle: Same State NG 3)	–	–	–	0.0946 µM	0.0791 µM	0.0937 µM
GGUCCAGCCUGAGCUGGACAAAAGCAUGUACAUGAGGAUCACCCAUGUCAUGUACAAGCUUUUUGCUCGUCUAAAUG [Mat - hsa-mir-208a - 93] (puzzle: Sensor for hsa-mir-208a)	0.802 µM	0.0217 µM	0.758 µM	–	–	–
CUGGCGCGCACAGGAUAUGCGGCCGGCAAGGUGGCAGAAGGGUGAUAAACAGACGACAUGAGGAUCACCCAUGUCGCAAAGAAU [Arsobe] (Eterna round: R96, puzzle: Same State NG 1)	–	–	–	0.214 µM	0.0713 µM	0.0854 µM
UUUCGGUGGCUGGAGGAUAUCCUGGUUGUUACAUGAGGAUCACCCAUGUGCCGCGCGGUGCGCUGGGAGAAGGCCGGCGGCCCUU (puzzle: Same State 2)	–	0.0252 µM	–	–	–	–
AUAGUUGCCGAAGGAUAUGAUGAUGAUCACACAUCAGAAGGUCGGCUAUUGGGUGGACAUGAGGAUCACCCGUGUUCUUUGGUC (Eterna round: R96, puzzle: Same State NG 1)	–	–	–	0.0961 µM	0.0795 µM	0.103 µM
UUUCCAUAGAUAGGAUAUCAGUUUACAUGAGGAUCACCCAUGUUCUCUUUGGUUAUAAUUAUAUCUGAGAAGGAUCUUGAUGAA [JR_SSNG2_Sub002] (Eterna round: R96, puzzle: Same State NG 2)	–	–	–	–	0.0204 µM	–
GUAACAUGACGAGGAUAUGGUACAUGAGGAUCACCCAUGUAUGUACCACGACGCGUACGUCGAAUCCAGAAGGCGUCGUGAAUG [Mat - Same State NG 2 - JL mod - D21] (Eterna round: R96, puzzle: Same State NG 2)	–	–	–	0.0265 µM	0.0685 µM	0.0701 µM
GAUACACAUGAGGAUCACCCAUGUCGUAUGACAUGAGGAUAUGUACAGACUUCGGUCUGUACAGAAGGCAUGUGUC [SS1 - 1011 Omei Mod 2] (puzzle: Same State 1)	–	0.0483 µM	–	–	–	–
AUAGUUGCCGAAGGAUAUGAUGAGGAUCACCCAUCAGAAGGUUGGCUAUUGGGUGGACAUGAGGAUCACCCAUGUUCUUUGGUA (Eterna round: R96, puzzle: Same State NG 1)	–	–	–	0.0642 µM	0.107 µM	0.14 µM
GCGAAGAGGUAAGGAUAUUCAUGGCGUAGACAUGAGGAUCACCCAUGUAGGAGACGAAUUAAAAGGGAGAAGGUACCAGGACGC [AK SSNG2-V2-16] (Eterna round: R96, puzzle: Same State NG 2)	–	–	–	0.0501 µM	0.298 µM	0.286 µM
UAAUUAAGUCAAGGAUAUCACGUCGUUUAGACGUGAGAAGGUGAUUAAUACAUGAGGAUCACCCAUGUAAUACAUGAAUAAUUA [SSNG1/11-B3] (Eterna round: R96, puzzle: Same State NG 1)	–	–	–	0.0513 µM	0.0595 µM	0.0645 µM
GGUCCAGCCUGAGCUGGACUAUAGCAUGUACAUGAGGAUCACCCAUGUCAUGUACAAGUAUGUUGUUUGUCUUGAAA [Sensorship 6 - Jieux - Sensor for hsa-mir-208a] (puzzle: Sensor for hsa-mir-208a)	0.0214 µM	0.0153 µM	0.0202 µM	–	–	–
AGUCCAGCCUGAGCUGGACAAAAGCAUGUACAUGAGGAUCACCCAUGUCAUGUACAAGCUUUUUGCUCGUCUAAAUA [Mat - hsa-mir-208a - Mod of JL - D27] (puzzle: Sensor for hsa-mir-208a)	0.516 µM	0.0158 µM	0.699 µM	–	–	–
ACAUGAGACCAAGGAUAUGUUGUACCUACAUGUGACAUGAGGAUCACCCAUGUGGUAAGUAUGAGGCAGAAGGUGGAGAUAUGU [Equivalence 26 - Jieux - Same State NG 2] (Eterna round: R96, puzzle: Same State NG 2)	–	–	–	0.0265 µM	0.0442 µM	0.0593 µM
GCUACCAAUGAAGCCUACAUGAGGAUCACCCAUGUAUGUAGGCAGGAUAUCGAUUGCAAAGCGAUCGAGAAGGGCUUAGGUAGC [Mat - Same State NG 3 - JL Mod - D91] (Eterna round: R96, puzzle: Same State NG 3)	–	–	–	0.0359 µM	0.0796 µM	0.0958 µM
AGUCCAGCCUGAGCUGGACAAAAGCAUGUACAUGAGGAUCACCCAUGUUCAUGUACAAGCUUUUUGCUCGUCUUAUU [salish99_208a_r3_047] (puzzle: Sensor for hsa-mir-208a)	0.457 µM	0.0141 µM	0.725 µM	–	–	–
AAGACAAGCUUUAUGUUCUUCCUAUUCCAACAUGAGGAUCACCCAUGUAGUCUGACGAUUGUGAGUGUAGUUGAGAU [JR_SHM208A_Sub027] (puzzle: Sensor for hsa-mir-208a)	0.0583 µM	0.0769 µM	0.0765 µM	–	–	–
AGCUAGUACCGAGGAUAUACAUACAUGAGGAUCACCCAUGUAUACAUGAAUAUAUGAGACUACAUGUAGAAGGCGGUACUAGCA [Mat - Same State NG 2 - JL mod - D46] (Eterna round: R96, puzzle: Same State NG 2)	–	–	–	0.0162 µM	0.042 µM	0.0605 µM
GUUACAUGAGGAUCACCCAUGUAUGUGUGGGAGUAAGUGUCUUAGGAUAUCUAAUAUUUAAAUUAAGAGAAGGAAGAUUGUUGU [JMF's solution 6] (Eterna round: R96, puzzle: Same State NG 3)	–	–	–	0.112 µM	0.0899 µM	0.112 µM
UUUGGGUGGCUGGAGGAUAUCCUGGUUGUUACAUGAGGAUCACCCAUGUGCCGCGCGGUUCGCGAGGAGAAGGCUGGCGGCCGUU (Eterna round: R96, puzzle: Same State 2)	–	–	–	0.0424 µM	0.0744 µM	0.154 µM
AUUGCUUACGCAGGAUAUGAUGUGGAAACUGCGUCAGAAGGGUGAACAGAAUCGUUGCAAGAAGACAUGAGGAUCACCCAUGUC [SameState NG1 #97] (Eterna round: R96, puzzle: Same State NG 1)	–	–	–	0.042 µM	0.0349 µM	0.039 µM
